{"source": "paper doi:10.1101/2020.10.06.327809", "about": "(bioRxiv, 2020)", "proteins": {"B1": {"name": "SepF-His (H. volcanii SepF expressed in E. coli, plasmid pSVA3969) (natural protein, Haloferax volcanii, UniProt D4H018 1-118, looked up)", "chain": "MGIMSKILGGGGSRTTEDYVELDLDDFDTARGDAGLSVHIAEIGGQQDVIAIKDAVYDGNLVIADITRHTTSDSTMEHIIDDLRQVAREVDGDIVQKGDDQIVITPTGISISRQKLNG"}}, "target": "the molecule itself", "experiment": "SEC", "data": [{"protein": "B1", "values": [{"measurement": "stoichiometry N", "value": 2}]}]}
